The target in assay [1] is Receptor comprising gp130 (B10G) and LIF-R (pHLIFR-65) co-expressed on COS-7 cells (human). As to the kind of experiment: Scatchard analysis of 125I-oncostatin M binding to COS-7 cells co-transfected with B10G and pHLIFR-65 (curve A of FIG. 2), phthalate oil separation.
Assay [2] deals with High affinity oncostatin M receptors on non-transfected COS-7 cells. Kind of assay: Scatchard analysis of 125I-oncostatin M binding to non-transfected COS-7 cells (FIG. 3 experiment), phthalate oil separation.
Assay [3] has as its target T1, Human gp130 encoded by plasmid B10G, expressed on COS-7 cells (human).
T1 sequence: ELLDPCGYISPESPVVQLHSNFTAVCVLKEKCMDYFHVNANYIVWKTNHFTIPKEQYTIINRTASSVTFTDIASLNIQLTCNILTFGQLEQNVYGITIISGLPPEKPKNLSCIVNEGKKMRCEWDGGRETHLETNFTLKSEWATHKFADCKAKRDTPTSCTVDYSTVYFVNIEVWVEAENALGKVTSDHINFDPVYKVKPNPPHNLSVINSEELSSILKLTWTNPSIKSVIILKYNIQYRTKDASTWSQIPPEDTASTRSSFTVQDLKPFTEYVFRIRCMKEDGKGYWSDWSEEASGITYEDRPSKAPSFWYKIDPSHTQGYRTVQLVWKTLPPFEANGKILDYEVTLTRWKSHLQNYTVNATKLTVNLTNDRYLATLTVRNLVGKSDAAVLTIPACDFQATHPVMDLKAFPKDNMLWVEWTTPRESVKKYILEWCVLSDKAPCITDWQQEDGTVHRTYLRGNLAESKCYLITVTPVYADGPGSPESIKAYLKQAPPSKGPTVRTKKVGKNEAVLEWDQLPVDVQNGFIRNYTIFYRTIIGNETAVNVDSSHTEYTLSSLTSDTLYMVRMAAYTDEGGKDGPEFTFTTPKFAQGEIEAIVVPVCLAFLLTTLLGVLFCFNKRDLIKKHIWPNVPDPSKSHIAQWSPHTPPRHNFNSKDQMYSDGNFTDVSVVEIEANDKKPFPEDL
Kind of assay: Scatchard analysis of 125I-oncostatin M binding to COS-7 cells transfected with B10G alone (FIG. 3 experiment), phthalate oil separation.

B1: Oncostatin M (ligand, UniProt P13725 26-221, looked up, species assumed)
Oncostatin-M: AAIGSCSKEYRVLLGQLQKQTDLMQDTSRLLDPYIRIQGLDVPKLREHCRERPGAFPSEETLRGLGRRGFLQTLNATLGCVLHRLADLEQRLPKAQDLERSGLNIEDLEKLQMARPNILGLRNNIYCMAQLLDNSDTAEPTKAGRGASQPPTPTPASDAFQRKLEGCRFLHGYHRFMHSVGRVFSKWGESPNRSRR
modifications: 125I label in some uses
In the case of B1, the results for the Kd in assay [1], in assay [2] and in assay [3] were 0.24 nM, 0.36 nM and 7.7 nM, respectively.
